IntAct's records for PubMed 11238466

B1: CARD domain-containing protein E10 (Equine herpesvirus 2 (strain 86/87)), Q66677 (parent)
chain: MAEKYPLQAGDPCVTLTEEDIWDVERLCLEELRVLLVSHLKSHKHLDHLRAKKILSREDAEEVSSRATSRSRAGLLVDMCQDHPRGFQCLKESCKNEVGQEHLVDLLERAFEKHCGDKLTQKWWESGADGRNPRRPPGSEDNSGYTALLPTNPSGGGPSIGSGHSRPRGRDDSGGIGGGVYPFSHGGARVVGGGWGGWGESGGAGRGGSLLSGGHGGHPPHGGPGGGGRDYYGGGGSGYYESIPEPANFPNSGGGGRGGGVRYDAGGDGRLGGLPPDPQEVDDPSLSVQGRGGPAPDPPSPPLRTRRFFCC
partner: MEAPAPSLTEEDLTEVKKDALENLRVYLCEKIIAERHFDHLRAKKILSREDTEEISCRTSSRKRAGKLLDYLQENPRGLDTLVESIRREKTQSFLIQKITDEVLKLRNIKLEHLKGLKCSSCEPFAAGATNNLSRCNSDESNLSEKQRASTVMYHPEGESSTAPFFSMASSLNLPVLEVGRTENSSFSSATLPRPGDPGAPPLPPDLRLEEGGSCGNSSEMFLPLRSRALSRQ
B2: CARD domain-containing protein E10 (Equine herpesvirus 2 (strain 86/87)), Q66677 (parent)
chain: B1 chain
partner: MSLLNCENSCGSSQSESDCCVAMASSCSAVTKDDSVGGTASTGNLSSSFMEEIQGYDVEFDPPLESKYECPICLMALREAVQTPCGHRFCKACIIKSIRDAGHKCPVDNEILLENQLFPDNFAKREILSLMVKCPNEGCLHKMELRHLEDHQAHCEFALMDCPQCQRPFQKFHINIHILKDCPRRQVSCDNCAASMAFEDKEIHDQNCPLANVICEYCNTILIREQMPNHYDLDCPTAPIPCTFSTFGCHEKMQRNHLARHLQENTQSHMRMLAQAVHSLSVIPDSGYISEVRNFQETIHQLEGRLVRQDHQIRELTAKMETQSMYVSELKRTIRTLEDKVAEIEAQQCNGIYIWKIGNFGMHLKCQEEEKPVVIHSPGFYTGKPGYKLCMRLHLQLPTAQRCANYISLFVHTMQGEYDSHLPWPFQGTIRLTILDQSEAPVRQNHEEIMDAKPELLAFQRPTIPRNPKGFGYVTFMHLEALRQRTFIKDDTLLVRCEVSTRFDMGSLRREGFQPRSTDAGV

Variants of: B1
Conditions: with bcl10_mouse Bcl10, Q9Z0H7

Variant	effect of a mutation on the interaction
MAEKYPLQAGDPCVTLTEEDIWDVERLCLEELRVLLVSHLKSHKHLDHRRAKKILSREDAEEVSSRATSRSRAGLLVDMCQDHPRGFQCLKESCKNEVGQEHLVDLLERAFEKHCGDKLTQKWWESGADGRNPRRPPGSEDNSGYTALLPTNPSGGGPSIGSGHSRPRGRDDSGGIGGGVYPFSHGGARVVGGGWGGWGESGGAGRGGSLLSGGHGGHPPHGGPGGGGRDYYGGGGSGYYESIPEPANFPNSGGGGRGGGVRYDAGGDGRLGGLPPDPQEVDDPSLSVQGRGGPAPDPPSPPLRTRRFFCC [L49R]	decreasing interaction

Variants of: B2
Conditions: with traf6_human TRAF6, Q9Y4K3

Variant	effect of a mutation on the interaction
MAEKYPLQAGDPCVTLTEEDIWDVERLCLEELRVLLVSHLKSHKHLDHLRAKKILSREDAEEVSSRATSRSRAGLLVDMCQDHPRGFQCLKESCKNEVGQEHLVDLLERAFEKHCGDKLTQKWWESGADGRNPRRPPGSEDNSGYTALLPTNPSGGGPSIGSGHSRPRGRDDSGGIGGGVYPFSHGGARVVGGGWGGWGESGGAGRGGSLLSGGHGGHPPHGGPGGGGRDYYGGGGSGYYESIPEPANFPNSGGGGRGGGVRYDAGGDGRLGGLPPDGQAVDDPSLSVQGRGGPAPDPPSPPLRTRRFFCC [P278G;E280A]	decreasing interaction
